In patent US20090311710A1, “MUTAGENESIS METHODS USING RIBAVIRIN AND/OR RNA REPLICASES” (priority 2002, published 2009):

System: TEM-1 Θ-lactamase (bla) gene expressed in bacteria
Assay: Cefotaxime resistance (MIC) conferred by mutant bla clones
Type: cell-based
Conditions: bla clone expressed in bacteria; listed as wild-type bla gene
Text: T7 RNA polymerase with the addition of 1000TM ribavirin 5′ triphosphate (dTRV) was used to transcribe (−) RNA from the bla gene θ-lactamase gene for antibiotic resistance) on plasmid pEGX205. The bla RNA was subsequently converted to cDNA using M-MuLV-reverse transcriptase, amplified with Pfu DNA polymerase, cut with appropriate restriction enzymes, and cloned into the plasmid pEGX212. Clones resistant to increased concentrations of cefotaxime were selected and sequenced (the minimum inhibitory concentration [MIC] for the wild-type bla gene was 0.02 ug/ml). […] When clone CefR E1 RNA was taken through a second round of T7 polymerase/dTRV mutagenesis, 3 clones containing 3 or more mutations were selected with one clone (F-E1-1) showing a 10,000-fold increase in cefotaxime resistance over the wild-type. No resistant mutants were isolated in the mutation/selection experiments that used T7 polymerase alone.

B1: Wild-type: wild-type TEM-1 β-lactamase (bla) gene for antibiotic resistance (protein, UniProt P62593 24-286, looked up)
Beta-lactamase TEM: HPETLVKVKDAEDQLGARVGYIELDLNSGKILESFRPEERFPMMSTFKVLLCGAVLSRVDAGQEQLGRRIHYSQNDLVEYSPVTEKHLTDGMTVRELCSAAITMSDNTAANLLLTTIGGPKELTAFLHNMGDHVTRLDRWEPELNEAIPNDERDTTMPAAMATTLRKLLTGELLTLASRQQLIDWMEADKVAGPLLRSALPAGWFIADKSGAGERGSRGIIAALGPDGKPSRIVVIYTTGSQATMDERNRQIAEIGASLIKHW
  cefotaxime minimum inhibitory concentration (MIC): 0.02 µg/mL
